Source: the DeepSol protein solubility set

Test: soluble on expression in E. coli; label from the status in PepcDB or PDB records

Sequence | soluble on expression in E. coli
MGSDKIHHHHHHMSGTAEVNPITVDVYLDITVENISTLKDLTVKFDNYDEDLHYVKEVTDNSVKVDGIIPGIYSVTVSGTAIDTENNEYYINGNSVNAALFKHGSALNIEVQGLKVSPLIFKEIYYCGSRPEKGGVYFRDQFYEIYNNSADILYLDGIYFANLTPGTATTKLPIWPEADGNNYAYGERVWKFPGNGTEYPLAPGESCIISQFAANHQLDIYNPQSPIDGSSSEFEFNMNNPNFPDQAAYDMQHVFYQGKAEMGSIPQYLTSVFGGAYVIFRVPEGEAWDPVNDENMKTTDLSKPNSNVYYAKIPIKYVLDAVEAVNNESKMNAKRVPGVLDAGITWVGATYCGLGIARKLSTDEEGNPIIREETGTYIYQDTNNSTDDFERGVVPVMRRNGAKMPSWNHTL | not soluble
MEQRTAEWFQARLGKVTASNIYNVLSKTAKGTPTSKYEEYKIKLMTERLTEEISQSYLTPAMQWGIEHEEDALKEYAIIYDTEVIKCGFIQHPTIEMAGASPDGLIGEEGLVEVKCPHSTKHLRFYMDGTIKPEYKAQMQFQMACTGRQWCDFVSYDPHFVGRSLRLRMKIKRIHRDEKQIEQINQAVEIFLEEIEQEMKQILTQAA | not soluble
MAHHHHHHMSLPPRGPSSPPAKCPQECVASSCVSLPITPPCIARRVLPLFPPPGWHMYDAYRNCFQYRPDVQRKLVKAVQRERHLRHLAAPHAGDAATSSAEVSAAVLRKEVMEMDSTCCCCALDAAHLFATPEDMPTPPLPLSRCELHEVLLALSPRWQSYPWRLCFDTASDGFSLSSLYRCMEAVDAKQSQVKTVAFGLFFVHSREDAALTNAQTASPVDSLSASSTSPSYALWPPTAGAPHSFCEAHHSSSRRYGAAHGALQHSVLGCFTPEVPCLGRHAANIYFGSTDTFVFRLDQLSCAPSRGAWMATDVEKKQSSQRAQQQEQQQQHGKAAEPHTCAPATSTRAVGAAPAYGYAKLALADDDIAGVPVPMPSRVTIEHAGDSKHAVDKSMVHSSPLLPPSEVPPLLNPSPLRAAVVSSSNAAAMSSVHGAPDIVVPSPRGRWHRLLRPVQPARVVPHAPLLEKFTWCGNMHNRKFIVCNPHFFAIGGGQSGAALYVDEALQYGTSSTWCETFNAPCLFGPRMGSADVSSVPSLVQSYMSGNDSPSGGPARPTSGLPHVEFAISRVVWFSVTEDKRTLRMMSAADASLPSAEAHRCGCGRFSCASASHTTTLDPMSTEKSTAPSPPPASTFLHQCDLLPFAAPM | not soluble
MSLGKFLVEREQMRYPVDVYTGKIQAYPEGKPSAIAKIQVDGELMLTELGLEGDEQAEKKVHGGPDRALCHYPREHYLYWAREFPEQAELFVAPAFGENLSTDGLTESNVYMGDIFRWGEALIQVSQPRSPCYKLNYHFDISDIAQLMQNTGKVGWLYSVIAPGKVSADAPLELVSRVSDVTVQEAAAIAWHMPFDDDQYHRLLSAAGLSKSWTRTMQKRRLSGKIEDFSRRLWGKEGGSHHHHHH | soluble
MEALIAYSGRRFARPHYYANAHERDEVDIVPVQMAMHDARAAGTGIDREGFQIVKHTSAVTDFADREQVARIHMREIEELVRAETGADMVHVGAPGLLRFSEKSGRAGSLNNSMPARFAHIDISDRTAQAFGERGANGRPFVRCAAYNVWRAISPPPQDVPLAFCDARSLAPGDLIEADAVFDEPGKPEWSFEGLVVAHNPAHRWYFFPDMRIDEAVLFKTNDSDPARAHHVPHVAFDLPDCPADAPPRVSIEMRATAYWWALEHHHHHH | soluble
MGSDKIHHHHHHMSAALSHWRRWPSVANYGKKRFDIHQSSLKKRQGLMTPHFFGFGSLVNTATHVYGNTRPARLEGWRRTWVRTPDRSMAFLSVTPAPGHVIEGLLAAVPNGDWAALDERETGYVRVDVTPQVAHDMAPAPQISLYQVPEESHDRNARDHKILLSYLDVVLRGYREVFGDTGAEAFMATTDGWDTPILNDRATPYYPRHQVMTPDEHALHDALIAEAGAQVLAGGE | not soluble
MLQNPPRITSTASIVGPKEGKGPLRLFFDNIIEDEMWGEKSWEKAESKLIRETFSKVLQKGNKTSQEIDYVISGDLLNQCIAANFGLRESDVPFFGVYGACSTIAESMSIGAMLVDGGFADNVVCITSSHFCSAEKQFRFPLELGTQRPPSAQWTVTGSGGVLISNDGSGPYITHITTGKIVDMGIKDANNMGAAMAPAAVDTIVTHFKDTGFTPESYDLILTGDLGAIGREICVELTREQGFNIENIYNDCGLMIYDREKQDTHAGGSGCGCAATVFAGFVYKKLMDGTLKNVLFVATGALLSPVSTQQGESIPSIAHAISITTSPERLEHHHHHH | not soluble
